Consider 4 molecules from patent publication US20150376282A1.

Test [1] addresses 2F8-HG (human). Description: non-covalent nano-ESI MS, monomer/dimer equilibrium (CH3-CH3 dimerisation of half-molecules).
Test [2] concerns the target 2F8-HG (human). The test can be described thus: non-covalent nano-ESI MS, 1 µM, self-association.
Another test addresses 2F8-HG-L236V (human). Description: non-covalent nano-ESI MS, 0.01-10 µM, self-association.
The next test has as its target 2F8-HG-Y275A (human). The test is described as above.
The target of another test is 2F8-HG-F405A (human). The test is described as above.

Broadly, the Kd is the constant that tells how readily two partners part at equilibrium. Low readings indicate tighter binding, high ones weaker binding. For the molecule 2F8-HG (antibody), the Kd in the test with 2F8-HG (human) [1] stood at 50 nM. In the test with 2F8-HG (human) [2], this molecule registered a percentage molecules present as monomers of 15%.

2F8-HG-L236V (antibody) gave a percent monomeric at low concentrations with 2F8-HG-L236V (human) of 100%.

The molecule 2F8-HG-Y275A (antibody) gave a percent monomeric at low concentrations with 2F8-HG-Y275A (human) of 100%.

B1: 2F8-HG-F405A (antibody, part only; not given: 2F8 VH and light chain, part only)
heavy, part: ASTKGPSVFPLAPCSRSTSESTAALGCLVKDYFPEPVTVSWNSGALTSGVHTFPAVLQSSGLYSLSSVVTVPSSSLGTKTYTCNVDHKPSNTKVDKRVAPEFLGGPSVFLFPPKPKDTLMISRTPEVTCVVVDVSQEDPEVQFNWYVDGVEVHNAKTKPREEQFNSTYRVVSVLTVLHQDWLNGKEYKCKVSNKGLPSSIEKTISKAKGQPREPQVYTLPPSQEEMTKNQVSLTCLVKGFYPSDIAVEWESNGQPENNYKTTPPVLDSDGSFALYSRLTVDKSRWQEGNVFSCSVMHEALHNHYTQKSLSLSLGK
Turning to B1, the percent monomeric at low concentrations with 2F8-HG-F405A (human) was 100%.
